Assay results reported in paper PMC4112721 (2013).

B1: VRC01 from stably transformed (transgenic) Nicotiana tabacum plants (antibody, V domains shown)
VH: QVQLVQSGGQMKKPGESMRISCRASGYEFIDCTLNWIRLAPGKRPEWMGWLKPRGGAVNYARPLQGRVTMTRDVYSDTAFLELRSLTVDDTAVYFCTRGKNCDYNWDFEHWGRGTPVIVSS
VL: EIVLTQSPGTLSLSPGETAIISCRTSQYGSLAWYQQRPGQAPRLVIYSGSTRAAGIPDRFSGSRWGPDYNLTISNLESGDFGVYYCQQYEFFGQGTKVQVD
modifications: N-glycan at N297 in the CH2 region (glycopeptide […]), GnGnXF^3 as the major glycan structure | N-glycan in the FR3 of the VL region (glycopeptide […]), GnGnXF^3 as the major glycan structure
B2: VRC01 from HEK cells (antibody, V domains shown)
VH: B1 VH
VL: B1 VL
modifications: N-glycan at N297 in the CH2 region (glycopeptide […]), GnGnF^6 as the predominant glycan structure | N-glycan in the FR3 of the VL region (glycopeptide […]), at least ten glycan structures
B3: VRC01 from transiently transformed Nicotiana benthamiana plants (antibody, V domains shown)
VH: B1 VH
VL: B1 VL
modifications: N-glycan at N297 in the CH2 region (glycopeptide […]), GnGnXF^3 as the major glycan structure | N-glycan in the FR3 of the VL region (glycopeptide […]), GnGnXF^3 as the major glycan structure

Biological target: HIV-1 envelope glycoprotein gp120 IIIB (HIV-1 (isolate IIIB), UniProt P04578 33-511)
Assay: SPR

Row | Binder | koff [s⁻¹]
1 | B1 | 0.000126
2 | B2 | 5.6e-05
3 | B3 | 0.000159
